The text below walks through data of IntAct's records for PubMed 21784946.

B1: Cell division protein FtsL (Escherichia coli (strain K12)), P0AEN4 (parent)
chain: MISRVTEALSKVKGSMGSHERHALPGVIGDDLLRFGKLPLCLFICIILTAVTVVTTAHHTRLLTAQREQLVLERDALDIEWRNLILEENALGDHSRVERIATEKLQMQHVDPSQENIVVQK
partner: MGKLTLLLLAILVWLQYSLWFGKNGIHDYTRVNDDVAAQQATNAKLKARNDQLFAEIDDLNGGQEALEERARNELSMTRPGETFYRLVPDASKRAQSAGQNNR
B2: Cell division protein FtsB (Escherichia coli (strain K12)), P0A6S5 (parent)
chain: B1 partner
partner: B1 chain

The variants in the first assay derive from B1. To be noted: with ftsb_ecoli ftsB, P0A6S5.
As for L63A;L70A;L77A;L84A, the “effect of a mutation on the interaction” value is reported as “decreasing interaction strength”.

A further assay covers variants of B2. To be noted: with ftsl_ecoli ftsL, P0AEN4.
For L46A;L53A;L60A;L67A, the “effect of a mutation on the interaction” value is “decreasing interaction”.

Variants of B2 are the subject of another assay. The note with it: with ftsl_ecoli ftsL.
For L46A;L53A;L60A;L67A, the “effect of a mutation on the interaction” value is on record as “decreasing interaction”.
